# Measured values from the supplement of paper PMC10567573.
# B1: YPEL3 (parent)
# chain: SKPKTFQAYLDDCHRRYSCAHCRA
# Variants of: B1
# Experiment: protein stability index of a GFP-peptide fusion (GPS, HEK-293T) (PSI 1-6); higher = more stable
# Details: c terminus: a fixed tail appended
# 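Further: lentivirally expressed fusions sorted by FACS into six bins by GFP to DsRed ratio, PSI derived from sequencing read proportions per bin multiplied by bin number.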
row,Variant,protein stability index
1,SKPKTFQAYLADCHRRYSCAHCRA [D11A],1.89
2,SKPKTFQAYLLDCHRRYSCAHCRA [D11L],2.11
3,SKPKTFQAYLQDCHRRYSCAHCRA [D11Q],2.21
4,SKPKTFQAYLGDCHRRYSCAHCRA [D11G],1.97
5,SKPKTFQAYLHDCHRRYSCAHCRA [D11H],2.37
6,SKPKTFQAYLRDCHRRYSCAHCRA [D11R],1.9
7,SKPKTFQAYLWDCHRRYSCAHCRA [D11W],1.5
8,SKPKTFQAYLPDCHRRYSCAHCRA [D11P],2.54
9,SKPKTFQAYLVDCHRRYSCAHCRA [D11V],1.75
10,SKPKTFQAYLSDCHRRYSCAHCRA [D11S],1.9
11,SKPKTFQAYLNDCHRRYSCAHCRA [D11N],2.6
12,SKPKTFQAYLFDCHRRYSCAHCRA [D11F],3.03
13,SKPKTFQAYLKDCHRRYSCAHCRA [D11K],2.83
14,SKPKTFQAYLTDCHRRYSCAHCRA [D11T],2.14
15,SKPKTFQAYLMDCHRRYSCAHCRA [D11M],2.47
16,SKPKTFQAYLCDCHRRYSCAHCRA [D11C],3.36
17,SKPKTFQAYLYDCHRRYSCAHCRA [D11Y],1.72
18,SKPKTFQAYLEDCHRRYSCAHCRA [D11E],2.59
19,SKPKTFQAYLIDCHRRYSCAHCRA [D11I],2.92
20,SKPKTFCAYLDDCHRRYSCAHCRA [Q7C],1.96
21,SKPKTFKAYLDDCHRRYSCAHCRA [Q7K],2.65
22,SKPKTFWAYLDDCHRRYSCAHCRA [Q7W],1.73
23,SKPKTFVAYLDDCHRRYSCAHCRA [Q7V],2.18
24,SKPKTFYAYLDDCHRRYSCAHCRA [Q7Y],1.85

row,Variant,protein stability index
1,SKPKTFHAYLDDCHRRYSCAHCRA [Q7H],2.2
2,SKPKTFEAYLDDCHRRYSCAHCRA [Q7E],2.16
3,SKPKTFMAYLDDCHRRYSCAHCRA [Q7M],1.8
4,SKPKTFDAYLDDCHRRYSCAHCRA [Q7D],2.68
5,SKPKTFIAYLDDCHRRYSCAHCRA [Q7I],1.4
6,SKPKTFGAYLDDCHRRYSCAHCRA [Q7G],2.22
7,SKPKTFFAYLDDCHRRYSCAHCRA [Q7F],3.06
8,SKPKTFRAYLDDCHRRYSCAHCRA [Q7R],2.02
9,SKPKTFTAYLDDCHRRYSCAHCRA [Q7T],1.93
10,SKPKTFNAYLDDCHRRYSCAHCRA [Q7N],2.04
11,SKPKTFSAYLDDCHRRYSCAHCRA [Q7S],1.89
12,SKPKTFLAYLDDCHRRYSCAHCRA [Q7L],1.76
13,SKPKTFPAYLDDCHRRYSCAHCRA [Q7P],2.8
14,SKPKTFAAYLDDCHRRYSCAHCRA [Q7A],2.39
15,SKPKTFQAYLDWCHRRYSCAHCRA [D12W],1.67
16,SKPKTFQAYLDACHRRYSCAHCRA [D12A],2.19
17,SKPKTFQAYLDECHRRYSCAHCRA [D12E],2.36
18,SKPKTFQAYLDVCHRRYSCAHCRA [D12V],1.96
19,SKPKTFQAYLDYCHRRYSCAHCRA [D12Y],2.28
20,SKPKTFQAYLDQCHRRYSCAHCRA [D12Q],2.01
21,SKPKTFQAYLDNCHRRYSCAHCRA [D12N],2.12
22,SKPKTFQAYLDSCHRRYSCAHCRA [D12S],2
23,SKPKTFQAYLDFCHRRYSCAHCRA [D12F],1.7
24,SKPKTFQAYLDMCHRRYSCAHCRA [D12M],2.69

row,Variant,protein stability index
1,SKPKTFQAYLDTCHRRYSCAHCRA [D12T],2.35
2,SKPKTFQAYLDPCHRRYSCAHCRA [D12P],2.57
3,SKPKTFQAYLDICHRRYSCAHCRA [D12I],2.22
4,SKPKTFQAYLDLCHRRYSCAHCRA [D12L],2.34
5,SKPKTFQAYLDCCHRRYSCAHCRA [D12C],2.74
6,SKPKTFQAYLDRCHRRYSCAHCRA [D12R],2.4
7,SKPKTFQAYLDHCHRRYSCAHCRA [D12H],2.35
8,SKPKTFQAYLDKCHRRYSCAHCRA [D12K],2.9
9,SKPKTFQAYLDGCHRRYSCAHCRA [D12G],2.64
10,SKPKTFQAYADDCHRRYSCAHCRA [L10A],2.54
11,SKPKTFQAYVDDCHRRYSCAHCRA [L10V],1.57
12,SKPKTFQAYQDDCHRRYSCAHCRA [L10Q],2.48
13,SKPKTFQAYRDDCHRRYSCAHCRA [L10R],2.62
14,SKPKTFQAYWDDCHRRYSCAHCRA [L10W],2.05
15,SKPKTFQAYHDDCHRRYSCAHCRA [L10H],3.32
16,SKPKTFQAYSDDCHRRYSCAHCRA [L10S],2.8
17,SKPKTFQAYKDDCHRRYSCAHCRA [L10K],2.94
18,SKPKTFQAYNDDCHRRYSCAHCRA [L10N],2.62
19,SKPKTFQAYGDDCHRRYSCAHCRA [L10G],2.79
20,SKPKTFQAYDDDCHRRYSCAHCRA [L10D],2.53
21,SKPKTFQAYCDDCHRRYSCAHCRA [L10C],3.6
22,SKPKTFQAYYDDCHRRYSCAHCRA [L10Y],1.97
23,SKPKTFQAYEDDCHRRYSCAHCRA [L10E],3.4
24,SKPKTFQAYMDDCHRRYSCAHCRA [L10M],1.75

row,Variant,protein stability index
1,SKPKTFQAYTDDCHRRYSCAHCRA [L10T],2.14
2,SKPKTFQAYPDDCHRRYSCAHCRA [L10P],2.79
3,SKPKTFQAYFDDCHRRYSCAHCRA [L10F],1.99
4,SKPKTFQAYIDDCHRRYSCAHCRA [L10I],2.41
5,SKPKTFQAYLDDCARRYSCAHCRA [H14A],2.03
6,SKPKTFQAYLDDCPRRYSCAHCRA [H14P],2.05
7,SKPKTFQAYLDDCERRYSCAHCRA [H14E],1.56
8,SKPKTFQAYLDDCSRRYSCAHCRA [H14S],2.06
9,SKPKTFQAYLDDCTRRYSCAHCRA [H14T],1.8
10,SKPKTFQAYLDDCYRRYSCAHCRA [H14Y],1.56
11,SKPKTFQAYLDDCLRRYSCAHCRA [H14L],1.82
12,SKPKTFQAYLDDCGRRYSCAHCRA [H14G],3.08
13,SKPKTFQAYLDDCIRRYSCAHCRA [H14I],2.05
14,SKPKTFQAYLDDCVRRYSCAHCRA [H14V],2.15
15,SKPKTFQAYLDDCFRRYSCAHCRA [H14F],1.07
16,SKPKTFQAYLDDCWRRYSCAHCRA [H14W],3.12
17,SKPKTFQAYLDDCMRRYSCAHCRA [H14M],2.34
18,SKPKTFQAYLDDCCRRYSCAHCRA [H14C],2.28
19,SKPKTFQAYLDDCDRRYSCAHCRA [H14D],1.67
20,SKPKTFQAYLDDCKRRYSCAHCRA [H14K],2.78
21,SKPKTFQAYLDDCRRRYSCAHCRA [H14R],1.73
22,SKPKTFQAYLDDCNRRYSCAHCRA [H14N],2.19
